Source: patent US20240368281A1 (INNATE PHARMA, published 2024)

How the values were obtained:
[1] = target: T1, single-chain NKG2A-CD94-mFc construct (human, UniProt Q13241 32-179, limits assumed); test: SPR, Biacore T100; antigen amine-coupled to a CM5 chip, antibody injected at 0.157-2.5 nM
T1 construct: The order here follows the printed name only; also called recombinant NKG2A; not shown: mouse Fc (mFc)
Experimental: Heavy chain frameworks included “VH1” based on VH1_18/JH6; “VH5” based on VH5_a; “VH6” based on VH5_51; “VH7” based on VH1_f; and “VH8” based on VH1_46, all with a JH6 J-segment. The antigen-binding properties were analyzed on a Biacore T100 (Biacore AB, Uppsala, Sweden). The antigen was in the form of a single-chain NKG2A-CD94-mFc construct was covalently immobilized on the sensor CM5 chip (Biacore AB, Uppsala, Sweden) via amine groups using 1-ethyl-3-(3-dimethylaminopropyl) carbodiimide hydrochloride (EDC) and N-hydroxysuccinimide (NHS). The immobilization level was targeted at 300 RU. Z270 antibody variants were diluted to a concentration series (0.157, 0.313, 0.625, 1.25, 2.5 nM) in the running buffer HBS-EP (10 mM HEPES pH 7.4, 150 mM NaCl, 3 mM EDTA, 0.005% (v/v) Tween-20). All the samples were then injected over the immobilized antigen for 2 min at the flow rate of 40 ul/min. Subsequently, the running buffer was injected for 3 min at 40 ul/min for antibody dissociation analysis. After each run, the regeneration buffer (10 mM NaOH, 500 mM NaCl) was injected (30 seconds, 10 ul/min) to completely strip the remaining antibodies off the antigen. Data were evaluated with Biacore T100 evaluation software.

[2] = target: T2, CD94/NKG2A on the cell surface (human, UniProt Q13241 1-179); test: flow cytometry (MESF), titration in human whole blood, gated on NKG2A+ lymphocytes
T2 construct: whole, on cells; also called Ba/F3-CD94/NKG2A; NKG2A+ cells
T2 sequence (chain, as listed by the source limits assumed, chain 1 of 2): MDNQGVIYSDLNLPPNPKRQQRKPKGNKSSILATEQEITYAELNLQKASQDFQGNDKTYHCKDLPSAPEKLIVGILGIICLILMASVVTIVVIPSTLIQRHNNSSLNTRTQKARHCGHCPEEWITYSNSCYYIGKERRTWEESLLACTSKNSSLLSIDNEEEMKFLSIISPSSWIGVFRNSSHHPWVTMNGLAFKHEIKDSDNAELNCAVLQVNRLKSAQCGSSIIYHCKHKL
T2 sequence (Q13241 whole entry, chain 2 of 2): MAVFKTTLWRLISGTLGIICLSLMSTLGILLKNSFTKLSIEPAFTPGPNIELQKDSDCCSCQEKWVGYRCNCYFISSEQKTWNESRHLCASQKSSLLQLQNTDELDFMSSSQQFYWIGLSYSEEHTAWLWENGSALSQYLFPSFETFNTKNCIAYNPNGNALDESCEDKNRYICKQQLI
Text: The affinity and total number of receptors may impact both pharmacokinetics (PK) and pharmacodynamics (PD) of the mAb in humans. […] Human whole blood was collected from each donor and processed immediately.

[3] = target: T2, CD94/NKG2A on the cell surface; test: flow cytometry, titration on purified human NK cells; four-parameter fit, median of 5 donors
T2 sequence (chain, as listed by the source limits assumed, chain 1 of 2): as the sequence (chain, as listed by the source limits assumed, chain 1 of 2) above
T2 sequence (Q13241 whole entry, chain 2 of 2, the tested form may be a part): as the sequence (Q13241 whole entry, chain 2 of 2) above
Experimental: Purified NK cells were prepared from frozen PBMC: Human NK purification with Stem Sep system, and cultured O/N in complete medium supplemented with 10 IU/ml recombinant IL-2. PBMC were prepared from collected blood. Blood was qualified for transfusion, donors were thus anonymous and supposedly healthy. PBMC were prepared, aliquoted and stored in nitrogen tanks prior to the study.
Calculations of Kd for receptor saturation and EC₅₀ for CD107 mobilization were performed in GraphPad Prism software using a non-linear regression fit with four parameters.

[4] = target: T2, CD94/NKG2A on the cell surface; test: cell-based or functional assay

T1 sequence (Q13241 other isoform, or with tags, fused parts or gaps limits assumed): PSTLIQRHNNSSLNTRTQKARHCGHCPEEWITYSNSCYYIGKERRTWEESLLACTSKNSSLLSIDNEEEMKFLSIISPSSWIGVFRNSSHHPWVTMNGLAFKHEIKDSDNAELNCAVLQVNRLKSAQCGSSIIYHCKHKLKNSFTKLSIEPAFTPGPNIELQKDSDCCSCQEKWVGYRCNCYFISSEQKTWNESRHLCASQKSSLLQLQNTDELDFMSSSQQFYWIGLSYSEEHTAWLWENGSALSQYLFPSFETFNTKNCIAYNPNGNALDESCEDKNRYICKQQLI

Kd [1]: 0.0665 nM
koff [1]: 0.000498 s⁻¹
kon [1]: 7.49e+06 M⁻¹ s⁻¹
EC50 [2]: ~4 ng/mL
KD for full receptor occupancy (the EC100) [2]: ~100 ng/mL
Kd [2]: ~4 ng/mL
Kd [3]: 5 ng/mL
EC50 concentration in the CD107 mobilization assay (purified NK cells against autologous SEB blasts) [4]: ~400 ng/ml
EC50 for CD107 mobilization on K562-HLA-E transfectants [4]: 4100 ng/mL
median EC50 for CD107 mobilization (autologous SEB blasts) [4]: 0.4 µg/ml
B1: humZ270VL1/VH1 (antibody, human IgG4 S228P, kappa, V domains shown)
VH: QVQLVQSGAEVKKPGASVKVSCKASGYTFTSYWMNWVRQAPGQGLEWMGRIDPYDSETHYAQKLQGRVTMTTDTSTSTAYMELRSLRSDDTAVYYCARGGYDFDVGTLYWFFDVWGQGTTVTVSS
VL: DIQMTQSPSSLSASVGDRVTITCRASENIYSYLAWYQQKPGKAPKLLIYNAKTLAEGVPSRFSGSGSGTDFTLTISSLQPEDFATYYCQHHYGTPRTFGGGTKVEIKR
notes: also called humanized Z270 VH1; humZ270 VH1
